# Reference: US20110263827A1 (AbbVie / Abbott, published 2011)
# B1: DVD334 (bispecific antibody)
# VH: EVQLLESGGGLVQPGGSLRLSCTASGFTFSSYAMNWVRQAPGKGLEWVSAISGSGGTTFYADSVKGRFTISRDNSRTTLYLQMNSLRAEDTAVYYCAKDLGWSDSYYYYYGMDVWGQGTTVTVSSASTKGPQVQLQESGPGLVKPSQTLSLTCTVSGYSISSDFAWNWIRQPPGKGLEWMGYISYSGNTRYQPSLKSRITISRDTSKNQFFLKLNSVTAADTATYYCVTAGRGFPYWGQGTLVTVSS
# VL: DIQMTQFPSSLSASVGDRVTITCRASQGIRNDLGWYQQKPGKAPKRLIYAASRLHRGVPSRFSGSGSGTEFTLTISSLQPEDFATYYCLQHNSYPCSFGQGTKLEIKRTVAAPDIQMTQSPSSMSVSVGDRVTITCHSSQDINSNIGWLQQKPGKSFKGLIYHGTNLDDGVPSRFSGSGSGTDYTLTISSLQPEDFATYYCVQYAQFPWTFGGGTKLEIKR
# notes: DVD-Ig; HC S, LC S; variable parts only
# B2: DVD776 (bispecific antibody)
# VH: EVQLLESGGGLVQPGGSLRLSCTASGFTFSSYAMNWVRQAPGKGLEWVSAISGSGGTTFYADSVKGRFTISRDNSRTTLYLQMNSLRAEDTAVYYCAKDLGWSDSYYYYYGMDVWGQGTTVTVSSASTKGPSVFPLAPQVQLQESGPGLVKPSQTLSLTCTVSGYSISSDFAWNWIRQPPGKGLEWMGYISYSGNTRYQPSLKSRITISRDTSKNQFFLKLNSVTAADTATYYCVTAGRGFPYWGQGTLVTVSS
# VL: DIQMTQFPSSLSASVGDRVTITCRASQGIRNDLGWYQQKPGKAPKRLIYAASRLHRGVPSRFSGSGSGTEFTLTISSLQPEDFATYYCLQHNSYPCSFGQGTKLEIKRTVAAPSVFIFPPDIQMTQSPSSMSVSVGDRVTITCHSSQDINSNIGWLQQKPGKSFKGLIYHGTNLDDGVPSRFSGSGSGTDYTLTISSLQPEDFATYYCVQYAQFPWTFGGGTKLEIKR
# notes: DVD-Ig; HC L, LC L; variable parts only
# B3: DVD806 (bispecific antibody)
# VH: B2 VH
# VL: B1 VL
# notes: DVD-Ig; HC L, LC S; variable parts only
# B4: DVD836 (bispecific antibody)
# VH: B1 VH
# VL: B2 VL
# notes: DVD-Ig; HC S, LC L; variable parts only
# B5: DVD777 (bispecific antibody)
# VH: QVQLQESGPGLVKPSQTLSLTCTVSGYSISSDFAWNWIRQPPGKGLEWMGYISYSGNTRYQPSLKSRITISRDTSKNQFFLKLNSVTAADTATYYCVTAGRGFPYWGQGTLVTVSSASTKGPSVFPLAPQVQLVESGGGLVKPGGSLRLSCAASGFTFSDYYMSWIRQAPGKGLEWVSYISSSGSTIYYADSVKGRFTISRDNAKNSLYLQMNSLRAEDTAVYYCARDEYNSGWYVLFDYWGQGTLVTVSS
# VL: DIQMTQSPSSMSVSVGDRVTITCHSSQDINSNIGWLQQKPGKSFKGLIYHGTNLDDGVPSRFSGSGSGTDYTLTISSLQPEDFATYYCVQYAQFPWTFGGGTKLEIKRTVAAPSVFIFPPDIQMTQSPSSVSASVGDRVTITCRASQGISSWLAWYQQKPGKAPNLLIYEASSLQSGVPSRFGGSGSGTDFTLTISSLQPEDFATYYCQQANGFPWTFGQGTKVEIKR
# notes: as for B2
# B6: DVD837 (bispecific antibody)
# VH: QVQLQESGPGLVKPSQTLSLTCTVSGYSISSDFAWNWIRQPPGKGLEWMGYISYSGNTRYQPSLKSRITISRDTSKNQFFLKLNSVTAADTATYYCVTAGRGFPYWGQGTLVTVSSASTKGPQVQLVESGGGLVKPGGSLRLSCAASGFTFSDYYMSWIRQAPGKGLEWVSYISSSGSTIYYADSVKGRFTISRDNAKNSLYLQMNSLRAEDTAVYYCARDEYNSGWYVLFDYWGQGTLVTVSS
# VL: B5 VL
# notes: as for B4
# B7: DVD807 (bispecific antibody)
# VH: B5 VH
# VL: DIQMTQSPSSMSVSVGDRVTITCHSSQDINSNIGWLQQKPGKSFKGLIYHGTNLDDGVPSRFSGSGSGTDYTLTISSLQPEDFATYYCVQYAQFPWTFGGGTKLEIKRTVAAPDIQMTQSPSSVSASVGDRVTITCRASQGISSWLAWYQQKPGKAPNLLIYEASSLQSGVPSRFGGSGSGTDFTLTISSLQPEDFATYYCQQANGFPWTFGQGTKVEIKR
# notes: as for B3
# B8: DVD805 (bispecific antibody)
# VH: QVQLQESGPGLVKPSQTLSLTCTVSGYSISSDFAWNWIRQPPGKGLEWMGYISYSGNTRYQPSLKSRITISRDTSKNQFFLKLNSVTAADTATYYCVTAGRGFPYWGQGTLVTVSSASTKGPSVFPLAPEVQLLESGGGLVQPGGSLRLSCTASGFTFSSYAMNWVRQAPGKGLEWVSAISGSGGTTFYADSVKGRFTISRDNSRTTLYLQMNSLRAEDTAVYYCAKDLGWSDSYYYYYGMDVWGQGTTVTVSS
# VL: DIQMTQSPSSMSVSVGDRVTITCHSSQDINSNIGWLQQKPGKSFKGLIYHGTNLDDGVPSRFSGSGSGTDYTLTISSLQPEDFATYYCVQYAQFPWTFGGGTKLEIKRTVAAPDIQMTQFPSSLSASVGDRVTITCRASQGIRNDLGWYQQKPGKAPKRLIYAASRLHRGVPSRFSGSGSGTEFTLTISSLQPEDFATYYCLQHNSYPCSFGQGTKLEIKR
# notes: as for B3
# B9: DVD333 (bispecific antibody)
# VH: QVQLQESGPGLVKPSQTLSLTCTVSGYSISSDFAWNWIRQPPGKGLEWMGYISYSGNTRYQPSLKSRITISRDTSKNQFFLKLNSVTAADTATYYCVTAGRGFPYWGQGTLVTVSSASTKGPEVQLLESGGGLVQPGGSLRLSCTASGFTFSSYAMNWVRQAPGKGLEWVSAISGSGGTTFYADSVKGRFTISRDNSRTTLYLQMNSLRAEDTAVYYCAKDLGWSDSYYYYYGMDVWGQGTTVTVSS
# VL: B8 VL
# notes: as for B1
# B10: DVD835 (bispecific antibody)
# VH: B9 VH
# VL: DIQMTQSPSSMSVSVGDRVTITCHSSQDINSNIGWLQQKPGKSFKGLIYHGTNLDDGVPSRFSGSGSGTDYTLTISSLQPEDFATYYCVQYAQFPWTFGGGTKLEIKRTVAAPSVFIFPPDIQMTQFPSSLSASVGDRVTITCRASQGIRNDLGWYQQKPGKAPKRLIYAASRLHRGVPSRFSGSGSGTEFTLTISSLQPEDFATYYCLQHNSYPCSFGQGTKLEIKR
# notes: as for B4
# Target: T1, EGFR (UniProt P00533 25-645, limits assumed, biotinylated)
# T1 construct: ELISA antigen; construct not described
# Assay: direct bind ELISA, C-term VD;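 also: ELISA with antibody or DVD-Ig preparations applied to target antigen-coated plates for 1 h at room temperature, TMB colour development, absorbance read at 450 nm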
row,Binder,EC50
1,B1,137 nM
2,B2,286 nM
3,B3,53.8 nM
4,B4,56.8 nM

# Target: T2, HGF (UniProt P14210 32-728, limits assumed, biotinylated)
# T2 construct: ELISA antigen
# Assay: direct bind ELISA, C-term VD;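 also: ELISA with antibody or DVD-Ig preparations applied to target antigen-coated plates for 1 h at room temperature, TMB colour development, absorbance read at 450 nm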
row,Binder,EC50
1,B5,0.96 nM
2,B6,1.29 nM
3,B7,9.24 nM

# Target: T3, IGF1R (UniProt P08069 31-932, limits assumed, biotinylated)
# T3 construct: ELISA antigen
# Assay: direct bind ELISA, C-term VD;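 also: ELISA with antibody or DVD-Ig preparations applied to target antigen-coated plates for 1 h at room temperature, TMB colour development, absorbance read at 450 nm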
row,Binder,EC50
1,B8,0.99 nM
2,B9,78.6 nM
3,B10,3.47 nM

# Target: T1, EGFR
# Assay: direct bind ELISA, N-term VD;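 also: antibody or DVD-Ig preparations bound to immobilized target antigen on ELISA plates, 1 h at room temperature, TMB detection read as absorbance at 450 nm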
row,Binder,EC50
1,B8,0.48 nM
2,B9,3.55 nM
3,B5,5.13 nM
4,B6,4.51 nM
5,B7,4.85 nM
6,B10,2.42 nM

# Target: T3, IGF1R
# Assay: direct bind ELISA, N-term VD;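 also: antibody or DVD-Ig preparations bound to immobilized target antigen on ELISA plates, 1 h at room temperature, TMB detection read as absorbance at 450 nm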
row,Binder,EC50
1,B1,0.19 nM
2,B2,0.83 nM
3,B3,0.4 nM
4,B4,0.51 nM
